Reference: patent publication US20250382362A1 (UNIVERSIT TSKLINIKUM REGENSBURG, published 2025)
Substitutions are numbered along the chain they refer to. Like-named read-outs stand apart in the source and are kept apart here.

Tests used:
Experiment in all cases: cell-based or functional assay
human IL3 [1] = target: T1, human IL3 (human, UniProt P08700 20-152)
T1 sequence: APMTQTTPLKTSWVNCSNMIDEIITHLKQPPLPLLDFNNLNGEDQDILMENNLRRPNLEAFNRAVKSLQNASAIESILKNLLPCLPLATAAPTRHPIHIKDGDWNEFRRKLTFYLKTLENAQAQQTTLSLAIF

human IL3 [2] = target: T1, human IL3; remark: listed apart in the source
human IL3 [3] = target: T1, human IL3; remark: listed apart in the source
human IL3 [4] = target: T1, human IL3; remark: listed apart in the source
human IL3 [5] = target: T1, human IL3; remark: listed apart in the source
human IL3 [6] = target: T1, human IL3; remark: listed apart in the source

B1: Chimeric P8C11 (antibody, V domains shown)
VH: QVQLQQSGAEMVRPGVSVKIACKGSGFTFTDYALHWVKQSHAKSLEWIGLISTYYGDTTYNQRFKGKATMTVDKSSSTAYMELARLTSEDSAIYYCVITTVAGTDAMDYWGQGTSVTVSS
VL: DIQMNQSPSSLSASLGDTITITCHASQNINVWLSWYQQKPGNIPKLLIYKASNLHTGVPSRFSGSGSGTGFTLTISSLQPEDIATYYCQQGYSYPYTFGGGTKLEIK
For B1, the “Inhibitory activity (block of IL-3 induced downregulation of CD131 on primary human basophils; chimeric P8C11 normalized to 100%)” value (human IL3 [1]) was 100%, the “Inhibitory activity (block of IL-3 induced downregulation of CD131 on primary human basophils; chimeric P8C11 normalized to 100%)” value (human IL3 [2]) was 100% and the “Inhibitory activity (block of IL-3 induced downregulation of CD131 on primary human basophils; chimeric P8C11 normalized to 100%)” value (human IL3 [3]) was 100%. For the same binder, the “Inhibitory activity (block of IL-3 induced downregulation of CD131 on primary human basophils; chimeric P8C11 normalized to 100%)” value (human IL3 [4]) was 100%, the “Inhibitory activity (block of IL-3 induced downregulation of CD131 on primary human basophils; chimeric P8C11 normalized to 100%)” value (human IL3 [5]) was 100% and the “Inhibitory activity (block of IL-3 induced downregulation of CD131 on primary human basophils; chimeric P8C11 normalized to 100%)” value (human IL3 [6]) was 100%.

B2: HC3 × LC3 (antibody, V domains shown)
VH: QVQLVQSGAEMKKPGASVKVACKGSGFTFTDYALHWVRQAPGQRLEWMGLISTYYGDTTYNQRFKGRVTITRDTSASTAYMELSSLRSEDTAIYYCVITTVAGTDAMDYWGQGTLVTVSS
VL: B1 VL with N5T, L15V, T18R, I19V, N42K, I43V, G70D, I83V
In the case of B2, the “Inhibitory activity (block of IL-3 induced downregulation of CD131 on primary human basophils; chimeric P8C11 normalized to 100%)” value (human IL3 [1]) is reported as 6%.

B3: MuHC × LC2 (antibody, V domains shown)
VH: B1 VH
VL: B1 VL with N5T, L15V, T18R, I19V, N42K, I43A, G70D, L73F
With B3 the “Inhibitory activity (block of IL-3 induced downregulation of CD131 on primary human basophils; chimeric P8C11 normalized to 100%)” value (human IL3 [2]) was 100%.

B4: HC3 × MuLC (antibody, V domains shown)
VH: B2 VH
VL: B1 VL
With B4 the “Inhibitory activity (block of IL-3 induced downregulation of CD131 on primary human basophils; chimeric P8C11 normalized to 100%)” value (human IL3 [2]) was 6%.

B5: HC3.MMH × muLC (antibody, V domains shown)
VH: QVQLQQSGAEMVRPGVSVKIACKGSGFTFTDYALHWVKQSHAKSLEWIGLISTYYGDTTYNQRFKGRVTITRDTSASTAYMELSSLRSEDTAIYYCVITTVAGTDAMDYWGQGTLVTVSS
VL: B1 VL
For B5, the “Inhibitory activity (block of IL-3 induced downregulation of CD131 on primary human basophils; chimeric P8C11 normalized to 100%)” value (human IL3 [3]) was 4%.

B6: HC3.MHM × muLC (antibody, V domains shown)
VH: B1 VH with K38R, S40A, H41P, A42G, K43Q, S44R, I48M
VL: B1 VL
With B6 the “Inhibitory activity (block of IL-3 induced downregulation of CD131 on primary human basophils; chimeric P8C11 normalized to 100%)” value (human IL3 [3]) was 100%.

B7: HC3.HMM × muLC (antibody, V domains shown)
VH: B1 VH with Q5V, V12K, R13K, V16A, I20V
VL: B1 VL
With B7 the “Inhibitory activity (block of IL-3 induced downregulation of CD131 on primary human basophils; chimeric P8C11 normalized to 100%)” value (human IL3 [3]) was 100%.

B8: HC4 × LC2 (antibody, V domains shown)
VH: B2 VH with R67K, V68A, I70M, R72V, T74K, A76S
VL: B1 VL with N5T, L15V, T18R, I19V, N42K, I43A, G70D, L73F
For B8, the “Inhibitory activity (block of IL-3 induced downregulation of CD131 on primary human basophils; chimeric P8C11 normalized to 100%)” value (human IL3 [4]) was 100%.

B9: HC1 × LC1 (antibody, V domains shown)
VH: B2 VH with M11V, A21S, G24A, I93V
VL: B1 VL with N5T, L11V, L15V, T18R, I19V, N42K, I43A, G70D, I83F
For B9, the “Inhibitory activity (block of IL-3 induced downregulation of CD131 on primary human basophils; chimeric P8C11 normalized to 100%)” value (human IL3 [1]) was 2%.

B10: HC5 × LC2 (antibody, V domains shown)
VH: B2 VH with S84A, S85R, R87T, T91S, L115S
VL: B1 VL with N5T, L15V, T18R, I19V, N42K, I43A, G70D, L73F
For B10, the “Inhibitory activity (block of IL-3 induced downregulation of CD131 on primary human basophils; chimeric P8C11 normalized to 100%)” value (human IL3 [4]) was 9%.

B11: HC6 × LC2 (antibody, V domains shown)
VH: B2 VH with I70M, R72V, T74K, A76S
VL: B1 VL with N5T, L15V, T18R, I19V, N42K, I43A, G70D, L73F
In the case of B11, the “Inhibitory activity (block of IL-3 induced downregulation of CD131 on primary human basophils; chimeric P8C11 normalized to 100%)” value (human IL3 [4]) is reported as 100%.

B12: HC7 × LC2 (antibody, V domains shown)
VH: B2 VH with M11V, I70M, R72V, T74K, A76S, I93V
VL: B1 VL with N5T, L15V, T18R, I19V, N42K, I43A, G70D, L73F
In the case of B12, the “Inhibitory activity (block of IL-3 induced downregulation of CD131 on primary human basophils; chimeric P8C11 normalized to 100%)” value (human IL3 [5]) is reported as 100%.

B13: HC8 × LC2 (antibody, V domains shown)
VH: B2 VH with A21S, G24A, I70M, R72V, T74K, A76S
VL: B1 VL with N5T, L15V, T18R, I19V, N42K, I43A, G70D, L73F
For B13, the “Inhibitory activity (block of IL-3 induced downregulation of CD131 on primary human basophils; chimeric P8C11 normalized to 100%)” value (human IL3 [5]) was 25%.

B14: HC9 × LC2 (antibody, V domains shown)
VH: B2 VH with I70M, R72V, T74K
VL: B1 VL with N5T, L15V, T18R, I19V, N42K, I43A, G70D, L73F
B14 was tested, and the “Inhibitory activity (block of IL-3 induced downregulation of CD131 on primary human basophils; chimeric P8C11 normalized to 100%)” value (human IL3 [5]) was 50%.

B15: HC10 × LC2 (antibody, V domains shown)
VH: B2 VH with R72V, T74K
VL: B1 VL with N5T, L15V, T18R, I19V, N42K, I43A, G70D, L73F
For B15, the “Inhibitory activity (block of IL-3 induced downregulation of CD131 on primary human basophils; chimeric P8C11 normalized to 100%)” value (human IL3 [5]) was 40%.

B16: HC11 × LC2 (antibody, V domains shown)
VH: B2 VH with M11V, I70M, R72A, T74K, A76T, I93V
VL: B1 VL with N5T, L15V, T18R, I19V, N42K, I43A, G70D, L73F
In the case of B16, the “Inhibitory activity (block of IL-3 induced downregulation of CD131 on primary human basophils; chimeric P8C11 normalized to 100%)” value (human IL3 [6]) is reported as 25%.

B17: HC12 × LC2 (antibody, V domains shown)
VH: B2 VH with M11V, I70M, R72V, T74K, A76T, I93V
VL: B1 VL with N5T, L15V, T18R, I19V, N42K, I43A, G70D, L73F
B17 was tested, and the “Inhibitory activity (block of IL-3 induced downregulation of CD131 on primary human basophils; chimeric P8C11 normalized to 100%)” value (human IL3 [6]) was 100%.

B18: HC1 × LC2 (antibody, V domains shown)
VH: B2 VH with M11V, A21S, G24A, I93V
VL: B1 VL with N5T, L15V, T18R, I19V, N42K, I43A, G70D, L73F
With B18 the “Inhibitory activity (block of IL-3 induced downregulation of CD131 on primary human basophils; chimeric P8C11 normalized to 100%)” value (human IL3 [1]) was 2%.

B19: HC13 × LC2 (antibody, V domains shown)
VH: B2 VH with M11V, I70M, R72A, T74K, A76S, I93V
VL: B1 VL with N5T, L15V, T18R, I19V, N42K, I43A, G70D, L73F
With B19 the “Inhibitory activity (block of IL-3 induced downregulation of CD131 on primary human basophils; chimeric P8C11 normalized to 100%)” value (human IL3 [6]) was 25%.

B20: HC14 × LC2 (antibody, V domains shown)
VH: B2 VH with M11V, A21S, I70M, R72A, T74K, A76T, I93V
VL: B1 VL with N5T, L15V, T18R, I19V, N42K, I43A, G70D, L73F
For B20, the “Inhibitory activity (block of IL-3 induced downregulation of CD131 on primary human basophils; chimeric P8C11 normalized to 100%)” value (human IL3 [6]) was 25%.

B21: HC15 × LC2 (antibody, V domains shown)
VH: B2 VH with M11V, G24A, I70M, R72A, T74K, A76T, I93V
VL: B1 VL with N5T, L15V, T18R, I19V, N42K, I43A, G70D, L73F
With B21 the “Inhibitory activity (block of IL-3 induced downregulation of CD131 on primary human basophils; chimeric P8C11 normalized to 100%)” value (human IL3 [6]) was 8%.

B22: HC1 × LC3 (antibody, V domains shown)
VH: B2 VH with M11V, A21S, G24A, I93V
VL: B1 VL with N5T, L15V, T18R, I19V, N42K, I43V, G70D, I83V
For B22, the “Inhibitory activity (block of IL-3 induced downregulation of CD131 on primary human basophils; chimeric P8C11 normalized to 100%)” value (human IL3 [1]) was 2%.

B23: HC2 × LC1 (antibody, V domains shown)
VH: QVQLVQSGSELKKPGASVKVSCKASGFTFTDYALHWVRQAPGQGLEWMGLISTYYGDTTYNQRFKGRFVFSLDTSVSTAYLQISSLKAEDTAVYYCVITTVAGTDAMDYWGQGTLVTVSS
VL: B1 VL with N5T, L11V, L15V, T18R, I19V, N42K, I43A, G70D, I83F
In the case of B23, the “Inhibitory activity (block of IL-3 induced downregulation of CD131 on primary human basophils; chimeric P8C11 normalized to 100%)” value (human IL3 [1]) is reported as 0.5%.

B24: HC2 × LC2 (antibody, V domains shown)
VH: B23 VH
VL: B1 VL with N5T, L15V, T18R, I19V, N42K, I43A, G70D, L73F
B24 was tested, and the “Inhibitory activity (block of IL-3 induced downregulation of CD131 on primary human basophils; chimeric P8C11 normalized to 100%)” value (human IL3 [1]) was 0.5%.

B25: HC2 × LC3 (antibody, V domains shown)
VH: B23 VH
VL: B1 VL with N5T, L15V, T18R, I19V, N42K, I43V, G70D, I83V
With B25 the “Inhibitory activity (block of IL-3 induced downregulation of CD131 on primary human basophils; chimeric P8C11 normalized to 100%)” value (human IL3 [1]) was 0.5%.

B26: HC3 × LC1 (antibody, V domains shown)
VH: B2 VH
VL: B1 VL with N5T, L11V, L15V, T18R, I19V, N42K, I43A, G70D, I83F
In the case of B26, the “Inhibitory activity (block of IL-3 induced downregulation of CD131 on primary human basophils; chimeric P8C11 normalized to 100%)” value (human IL3 [1]) is reported as 6%.

B27: HC3 × LC2 (antibody, V domains shown)
VH: B2 VH
VL: B1 VL with N5T, L15V, T18R, I19V, N42K, I43A, G70D, L73F
For B27, the “Inhibitory activity (block of IL-3 induced downregulation of CD131 on primary human basophils; chimeric P8C11 normalized to 100%)” value (human IL3 [1]) was 6%.
